From article PMC8533005
Where a chain is given by its changes, count along the chain named. Names may count otherwise.

Assays:
Experiment in all cases: purified protein
purified protein [1] = substrate: O=S(O)(O)=S; type: biochemical, Saccharomyces cerevisiae
purified protein [2] = substrate: O=S(O)(O)=S; details: pH 7.4; 37.0 °C
purified protein [3] = substrate: O=S(O)(O)=S; type: biochemical, Homo sapiens; details: Reaction 1, sulfur donor, fixed KCN, 300 mM HEPES pH 7.4, room temperature
Source text: thiosulfate:cyanide sulfurtransferase, ferric thiocyanate colorimetry, Michaelis-Menten fit on TST

[4] = Reaction 1, sulfur donor, fixed KCN, 300 mM HEPES pH 7.4, 25 °C

B1: RDL1 (Saccharomyces cerevisiae S288C) (protein)
chain: MWKAVMNAWNGTESQSKNVSNIQSYSFEDMKRIVGKHDPNVVLVDVREPSEYSIVHIPASINVPYRSHPDAFALDPLEFEKQIGIPKPDSAKELIFYCASGKRGGEAQKVASSHGYSNTSLYPGSMNDWVSHGGDKLDL
Purified protein [1]; pH 7.4
  Km: 4.0 ± 0.4 mM

B2: TST (Homo sapiens; T253V) (protein)
chain: MVHQVLYRALVSTKWLAESIRTGKLGPGLRVLDASWYSPGTREARKEYLERHVPGASFFDIEECRDTASPYEMMLPSEAGFAEYVGRLGISNHTHVVVYDGEHLGSFYAPRVWWMFRVFGHRTVSVLNGGFRNWLKEGHPVTSEPSRPEPAVFKATLDRSLLKTYEQVLENLESKRFQLVDSRSQGRFLGTEPEPDAVGLDSGHIRGAVNMPFMDFLTEDGFEKGPEELRALFQTKKVDLSQPLIATCRKGVVACHVALAAYLCGKPDVAVYDGSWSEWFRRAPPESRVSQGKSEKA
Purified protein [2]
  Km: 2.43 ± 0.70 mM
  kcat: 0.025 s⁻¹

B3: TST (Homo sapiens) (protein)
chain: B2 chain with V253T
notes: codon-optimized synthetic gene, pET30a, E. coli BL21(DE3), Ni-NTA and size exclusion; tandem-domain rhodanese, active-site loop CRKGVT ending in Thr253
Purified protein [3]
  Km: 15.68 ± 2.86 mM
  kcat: 101.73 s⁻¹

B4: RDL2 (Saccharomyces cerevisiae S288C) (protein)
chain: MFKHSTGILSRTVSARSPTLVLRTFTTKAPKIYTFDQVRNLVEHPNDKKLLVDVREPKEVKDYKMPTTINIPVNSAPGALGLPEKEFHKVFQFAKPPHDKELIFLCAKGVRAKTAEELARSYGYENTGIYPGSITEWLAKGGADVKPKK
notes: His-tagged, pET30a, E. coli BL21(DE3), Ni-NTA and size exclusion; no firm dimer in crystal; active-site loop CAKGVR with Cys106 and Arg111
Purified protein [1]; [4]
  Km: 32.5 ± 3.50 mM
  kcat: 15.32 s⁻¹

B5: RDL2 (Saccharomyces cerevisiae S288C; K108A) (protein)
chain: B4 chain with K108A
notes: as for B4
Purified protein [1]; [4]
  Km: 93.23 ± 2.67 mM
  kcat: 8.71 s⁻¹
